Biological target: tropomyosin
Test: cell-based or functional assay

GFP-CKIIα (from UniProt Q60737 1-391)
colony formation inhibition assay, A9 cells under G418 selection: > 2000 colonies

From patent US20100144847A1
